One series deals with CLDN1. The series is described as follows: Immunoblot of CLDN1. The format is cell-based. As to the method:
(§1) FIGS. 4A-4C. (A) Huh7.5.1 cells seeded in a 12-well plate were treated with hEP-2 (20 μg/ml) for indicated time periods. Cells were stained with a mouse IgG (istotype control) or the anti-LDLR antibody followed by flow cytometric analysis. An overlay of 7 histograms is presented and the Δ median fluorescence intensity (ΔMFI, LDLR stain minus isotype control stain) of each sample is indicated to the upper right of the figure. (B) Cells were stained with anti-CD81 antibody and analyzed similarly as in A. (C) Immunonblots of SR-BI, CLDN1, and OCLN in the presence of hEP-2 or scrambled peptide.
(In general: A western blot detects proteins with antibodies after separation by electrophoresis.)

The test system of the next series is CD81. As to the kind of experiment: CD81 level on Huh7.5.1 cells by flow cytometry. The format is cell-based. As to the method: as §1
(In general: Flow cytometry measures light scatter and fluorescence of single cells or particles in a stream.)

A further series relates to HCVcc-luc. The series is described as follows: Anti-HCV activity after pre-incubation of the peptide in cell culture. The format is cell-based, Hepatitis C virus. The note with it: 20 μg/ml, 24 hours in culture before HCVcc-luc.

B1: hEP: human apoE dual-domain peptide: helix 4 of N-terminal domain plus major lipid-binding region; expressed in bacteria (protein)
peptide: EELRVRLASHLRKLRKRLLRDADDLQKRLAVYEEQAQQIRLQAEAFQARLKSWFEPLVEDM
Regarding B1, in the series on CLDN1, the “Effect on level of CLDN1” value is given as “did not affect”. Besides, the “Effect on level of CD81” value in the series with CD81 is “did not affect”. Also, the “Anti-HCV activity after being left in the culture” value with HCVcc-luc is listed as “largely retained”.

The values above are taken from US10125184B2, “Apolipoprotein E polypeptides and their use” (priority 2011, dated 2018).
